According to the DeepSol protein solubility set:

assay: soluble on expression in E. coli; label from the status in PepcDB or PDB records

Soluble on expression in E. coli, not soluble:
MGSDKIHHHHHHMDISRKIERLELFLEQDKDNLNLMLDLIYLSLDAGSIDIAENYLYRAQQQHPESSQLIYLSGLISCQRKNFEQGLITFNSLLSAGVRSASILYQAAYCNIQLGNPETALERLIHASELSPETEILYLLARTQYQLKNFELAVSTLTALADSDAKYAPAHSLLSQIYMDIEQWADAQASAAKALALDPNNVTANITIGFITLNSNQYDQAARHFSQALNVNDESCRTHLGLAIIDVFQQRYVEAEQHLLKALSLQNDLLPGINLLGWLYLLTDRFALARDVFDRGVEVDRSYAEMYGGIAIVDILEKDETAARKNVAIALRLDKMSYAGNFAKILLLQNAQRLSQAEKVWKNLISSPIDDTGKTLEQAVIEQIRAYLKVTLH, MGSDKIHHHHHHMDKRNSCYLCFGFQSRILARESALMDTQSLQAFLAVADHGSFSLAAEQLHLTQPAVSKRIAGLEGQVGAQLFDRLNRRVTLTEAGRTLLPRARQILVMFDDSRRALSNLSGDISGSLTMATSHHVGLHRLPPLLKAYTQAYPDVRMDMRFLDSEQAYQGVLDGDLELAVVTLAPVPDPALTVVPVWIDQLRFVCGREHALAGRDTVALSALSDYDAVLPGHLTFTRGIVVDTFARDGLQVNVSLSTNYLETLKMMVAIGLGWSVLPETMIDDEIEVIPIDHRPIQRPLGYLFHKSRTLSNAARAMLEMLDAARDTTARQWV, MGSDKIHHHHHHMDLASRLLLLLEVSELGSFVKVSELRNVNRSAISKQIGKLEKELGVHLLNRTTRSLSLTAAGSEMVNQAKQLRDLLNNSKRLAENYHSEPRGELKISSSTLFGRQYVQQAVLKFQAQYPDIRIELLLEDRIVDLVGEGFDIGFRIGEPKESNLIAKQIAQNRLLIVAAPSFIEKHGKPTTIPKLESLPAVVYSAQGLLIDKIKYLDNTGNEAFIQLNTAYKVNEVEMLINTAVAGEMLTVTTAQMIENEVLEGKLIPIMTHINLADYGTFYAVYPHRNSPLKTKLFIETLKEVVGDKRPIWETRIPGFDKMYNNKT, MGSDKIHHHHHHMDLQYLDNFLALAHYRSFSAAADACYISQSSFSKRIMRLENNLGVTLFERSTRQVSLTEYGQIYLKYAQQIKTLSRQATDEINRRHAEDEGIVIGGIPSISEYGILDLISGFIKTTHIHCQVKSAPSEDLEPMLLNQTLDFAFIKEVHHTNLFYQLPYAEDHLVAVLPANHPLANLSEIKLQQLANEDFIFQPVNSRPYELCMMICKQNGFTPNVIYADRIIENILNFVKKGLGVSLLMEKLVPKDSELICLPIHPAVVADINLCYLKKEPLSQYGYAFLNYFSHQNNAR, MGSDKIHHHHHHMDLYQEELIKKISAITPFYIVGGTVRDHLLNRPGKDVDGIIPIPLEELEKHLREWGYHPLKIGAKHQTLSVFQQGQRMDINFFDGDLEADALRRDFTINAVFQDARTGELIDPLQGREDLENKLLRACGNPWERFREDPVRILRMVRFSVQYGMDIEEDTFRSAQSLLPELKHVASERTSEELGRILTLADPAAGIRLLNELGYLTLYLPELVRLQGLAQNRYHTKDAWEHTLQVLANTPPQPILRLAGLFHDLGKWEVASRECYVWGKCWAEDKGYYIGEYRILGRQLHRYHGDYVEVHGTRLDHYPQVIQVKRIRKDPSCRRGFEWVRDGKRHFLGHEKESGRLTRQILARFRLAMVLGKEGEGGEKELLWLIENHMSGTLSFIAELRGEGSALQLNQKVRQFVWEKGWDGRSYRLTRVDQLLELWRADFYGGKKREPKEEQIFEELLEKLHQTNKAVQKRHQELEWGELEKFAQEHKIKGREWGDFKESLRKTRVVSVDWIPLTTGFLEKEYKHFKGRNYAKRERE, MGSDKIHHHHHHMDNKELKAFCNLIGLNCVGVAGVDKYDNLEKILKDRQQKGYLTGMEEPIIENRINPRHIMKDANSIIVCAFPYHINRQEKNKNSNLSKYCHGKDYHIVVKDFLQQICDYISKTVTDFKYKLFADNGPLVDRYLAYLSGIGYFGINNNIITDEYGSYVFIGYIVNNYKFEEDKPLEKSCFKCGKCVKYCPGNAILGNYDMNPKKCLSYITQKKGDLSEKEKVVLKNGKKVFGCDICQEVCPHNVEIPTTHILEFKENIIDYLDYDEIQNISNKEFKRRYGDRAFSWRGRNIIKRNMEIILDKYDD, MGSDKIHHHHHHMDRLIYTAMTGLKHIMEQQSTTANNLANATTTGFRAQIDSFRAVPVLSDGLPTRAFVVDATVGTNFNSGVINTTGRELDLAIRDQGWFAVQRPDGTEAYTRNGNFKLNENGVLQTQDGMMVLGDNGPITIPLEAKVAFANDGMVSAVATNVVPLFTNMIGRLKLVNPGDDNLVRGPDGLFETRNREPVPASANVTIVSGALEGSNVNVVEEMVNMISQARQFDLQTKLIQNAENNATKAGQIFSLS, MGSDKIHHHHHHMDRYRGNAEAVKNLVRGHAVHRDVYVDKEVFDLEMEQLFPNSWVYVGHESQLKDPGDYITSKIGHQPILISRHKNGTIHVLHNRCPHKGVKIASEPCGNTGKFFRCPYHAWSFKTDGSLLAIPLKKGYEGTGFDNDRAKDGLPRVENVHIYRGFIFARLSDTGLSFEDYFGDSLSTIDNMVDRSPKGEVEIIAAPIRYMHTCNWKMLVDNQTDTCHPMVAHESSAGTAVSVWEREKHRFTETPMAVQLYAPFMSPYEFYESAGIRVWPNGHGHSGVSGSIHQDYDDVDGYLEMMVEAYGETRAREILGDIRHNTLYFPNVMVKGPVGILRNFIPVAVDRTLVESWAFRLVGAPDKIYERALMYNRFINAPTSIVGHDDLEMYERAQEGLLSDANEWINLRRLYEEGEPEDVTEVVNGTSERQMRNTFYAWRKFMVQGMEQKQEVSA, MGSDKIHHHHHHMDSIQESDVLNAVKTKLPPCCLRIFRNKIILVGTYDLDKSTGYRSGSLDVFTMDLKLLCSNNTYGAILDLKLSPFDDTLICTAHSTGNIMLWRIRCTDKDDFQSNELDIHAIANLQLFEKDVLIASCHFSPLDCKKLLVTNTAGEAATIDIRTLSVQFTASAIAQAYSKLDKIDYEVQGATEKVIHVESGQFLKPHELECWTAEFGSLQPFQDVVFTGGDDSRIMAHDLRSKEFIWSNNRIHDAGVVSIKCSQPNFRNNKPTSIITGSYDDNIRSLDLRMMGESIFPGANVPTVNKLACDLGGGVWRFVESPIDQEQSHHNGSDRLLVCCMYNGAKVVTMNDNSDEYFQIQHYLKKGHDSMCYGGDWSNSLIATCSFYDNSLQTWIV, MGSDKIHHHHHHMDSLDQCIVNACKNSWDKSYLAGTPNKDNCSGFVQSVAAELGVPMPRGNANAMVDGLEQSWTKLASGAEAAQKAAQGFLVIAGLKGRTYGHVAVVISGPLYRQKYPMCWCGSIAGAVGQSQGLKSVGQVWNRTDRDRLNYYVYSLASCSLPRAS, MGSDKIHHHHHHMDSSIDLSLAYADSGVGEVLDQLDCELIGLKPVKTRIREIAALLLVDRARKDLDLASTMPSLHMSFTGRPGTGKTTVAIRISQILHRLGYLRKGHVVTVTRDDLVGQYVGHTAPKTREMIKRAQGGVLFIDEAYYLYKPGNERDYGAEAIEILLQDMESRRGDFVVIFAGYKDKMDAFYQSNPGLSSRVAHHIDFPDYSNRELLAIAQLFLVQQNYYFGDEAEGIFEDYIERRRQLPFFANARSIRNALDRTRLRQANRLFARMGEPLSRDELMTIEPADILASRVFQGEVEGRHPTQPLMESSE, MGSDKIHHHHHHMDTLTRIRAFIDVVEAEGFSAAARKTGRSKALLSKYVRELEDELGALLLNRTTRQFSMTEAGHTYYRSAADILKEIDNLADLVRENNVGISGKIRITVPRSFTDAEVGQSLIDFALQHPDLSIEIVAEDRFVDLIEEGFDLAIRVTKLEDSGMIARKLADFRSYACASPVFLEKYGPLTHPQDLSKVPVLIDTNTRGHNSLRLRQPDGEAFTVNISGPLEVNSPQTTLRGALSGLGIALLPDFVARRHIESGALISIFEDYMPSGSGIYAVYPHRRYLPAKVRALVDFMHNWFKRNGTCQPKQGTPPSE, MGSDKIHHHHHHMDVRFINEQTIMIYFENKISEETYRNVTAMVRWIREKEILEIQDIVPSYRAVLIYFDEQAITSSKLIENLELNKFNEKNVHAVNQTNRIIKIPVQYGGTYGPDIEEVAKHNRITVEQVIEKHTSKPYLIYMLGFMPGFPYLGGLDEQLHTPRRNQPRLKIHAGSVGIANNQTGLYPSDSPGGWQIIGRTPLKVFSSEREPMSMYEAGEWIQFYAIDEQKFIQIERDISDGNFNVDDWVVIENVN, MGSDKIHHHHHHMEDTQSVLQEYGLTAQFIEPVSPLVWKVYTDYGIFALKKLKEGRGKHFTDHMVAIEEKGFRSFVPVYRTNSGEFFSAGIQYGDIYYLMPWLQFDQEEERDQKHAYLFRETARLHERTAQELKVRRDEIERYYGQTKKKWEQDKIFYEQFVDRAEKEWYLSPFELQAITYFSETISAVNFALERLEDWYESAKEKDVSRVVMNHGSLSIHHFLYNDAGTGYFTNFERASVGPPQNDLLGFYTKMFRGFPKACPECVEWFYGYTKSFPLREAEVSLFLSYMAYPAAMYKVLNGYQTGKRQHEKEECTQLLKAYWQMKNIEPFVMKIHQIEQEKKFQAENESTS, MGSDKIHHHHHHMEDYEGKFSPSELKLKGIHTSTTFWTVGMIVQQYKNGHLVIPKIQRGYVWNEEKARRFIMSLLQGFPIPPIFIIELSGKFYVVDGQQRIRTILWFLGEDNELLEKLGPLRVPIKELAENYNEYGVTNLSEAIIKKIIFGNHPKEFNYKYFTKDFRQYFESLSIPVQHISISSGKEYILTDIFLRINQGSVKLSAMELWRVYYGKDIEEYFHKLNELARYTVAKIYEVSNGKISRQKLERFRIDEFILTFDVLINGLITPPNYIPKDAKLGAVIFSQKTTLKKVKIFVLENRRKVFKNNKGELKKFLDYLEREYKEILKMITYVLGEFTFRRPTIGNECQYALIRPSGNDINEAVFLYEVAIFKLLKDNGHSELIYENKDFIKHVILTSLIENDELFSRSTSTFRSVANKLELAKLTYKKIITKEDNITKDNLKRLLYEKFRASRVSNPVCPYCKEPISDISVADLAHIRPLAFGGQTYIHNLTLAHSTCNRRFGVRDISQYINRC, MGSDKIHHHHHHMEEEMLKCKRLFVSDMDGTFYLGNTLLPGSLDFAMAVHRLGARLVFLTNNSSRTPEEYIRKLEKMGVDRKLFQVYTSGEATISFLKRDFAKKKAFLLSTPSVREMFEKGGVMLDDFDPEVLVLAFDTSITYEKIRRAALLIRQGIPYVASHPDINCPTEEGPIPDVGSLISLFETSTGRRPDHIIGKPDPAILKMVMEDFDCSQEETVVIGDRLYTDIECGLKAEVDTFLVLSGETTRDMIPDRHSYKVVENVGSLAKKIRDHDTV, MGSDKIHHHHHHMEELFTYKEFIKMMQNYGIRHKKRKLRRNENVMTNSSSPNSVILLIKGYICSYTCESPETLLSVFEPGVFLSYSILEDLPPLVTNIALSEECIVYEYEKEDIEYALSLFPENFGFQYFFLKKIGRHLYYKALLNAKDHQEKLYYTIKYLGKLIGEKDGKGNIVLPPEITIKILIEYSTLSKAAFYRQRIRLIEEEILKPHKKTFLVPKKVVKHYEKQLTSI
